Assay results published in patent publication US20210206877A1 (Genentech, published 2021).
Like-named read-outs stand apart in the source and are kept apart here.

What was measured:
Assay in all cases: cell-based or functional assay
human BACE1 ECD = human BACE1 ECD (human, UniProt P56817)
murine BACE1 ECD = target: murine BACE1 ECD
[1] = target: T1, BACE1 ECD (as used in the enzyme activity assay) (UniProt P56817 22-457, limits assumed)
[2] = target: T2, BACE1 endogenous to primary cortical neurons from E16.5 CD1 mice (mouse, UniProt P56818 46-501)
T2 sequence (P56818 46-501): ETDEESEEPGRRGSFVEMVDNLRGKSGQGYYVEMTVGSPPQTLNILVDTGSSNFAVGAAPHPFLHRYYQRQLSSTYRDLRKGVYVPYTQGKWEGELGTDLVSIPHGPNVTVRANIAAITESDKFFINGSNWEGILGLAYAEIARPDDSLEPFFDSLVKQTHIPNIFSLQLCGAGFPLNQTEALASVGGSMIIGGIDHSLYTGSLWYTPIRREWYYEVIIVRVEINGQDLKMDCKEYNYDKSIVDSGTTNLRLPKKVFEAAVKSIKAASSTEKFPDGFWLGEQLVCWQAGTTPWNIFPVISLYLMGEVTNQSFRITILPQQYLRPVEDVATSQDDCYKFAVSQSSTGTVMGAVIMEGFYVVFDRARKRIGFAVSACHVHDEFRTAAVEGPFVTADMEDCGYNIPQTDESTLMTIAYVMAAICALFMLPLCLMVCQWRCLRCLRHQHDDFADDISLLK

[3] = target: T1, BACE1 ECD (as used in the enzyme …); remark: listed apart in the source
[4] = target: T2, BACE1 endogenous to primary cortical …; remark: listed apart in the source
Wherever % inhibition, FRET short substrate assay (negative = activation) is given: test concentration or dose not given here.

T1 sequence (P56817 22-457 limits assumed): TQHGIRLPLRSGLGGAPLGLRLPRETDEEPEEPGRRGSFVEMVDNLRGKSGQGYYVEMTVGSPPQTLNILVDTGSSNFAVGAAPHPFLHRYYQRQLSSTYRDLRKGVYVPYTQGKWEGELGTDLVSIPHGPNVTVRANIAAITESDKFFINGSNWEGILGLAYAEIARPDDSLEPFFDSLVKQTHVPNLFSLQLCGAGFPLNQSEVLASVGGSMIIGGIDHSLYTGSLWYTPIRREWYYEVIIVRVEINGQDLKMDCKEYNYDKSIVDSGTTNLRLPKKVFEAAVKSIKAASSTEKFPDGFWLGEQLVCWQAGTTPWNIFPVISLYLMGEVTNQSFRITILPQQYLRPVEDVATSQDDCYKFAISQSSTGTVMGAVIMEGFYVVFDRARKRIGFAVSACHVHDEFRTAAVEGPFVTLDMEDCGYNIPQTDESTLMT
Sequence of human BACE1 ECD (P56817 22-457): as the sequence (P56817 22-457 limits assumed) above
Sequence of murine BACE1 ECD (single chain, as listed by the source limits assumed): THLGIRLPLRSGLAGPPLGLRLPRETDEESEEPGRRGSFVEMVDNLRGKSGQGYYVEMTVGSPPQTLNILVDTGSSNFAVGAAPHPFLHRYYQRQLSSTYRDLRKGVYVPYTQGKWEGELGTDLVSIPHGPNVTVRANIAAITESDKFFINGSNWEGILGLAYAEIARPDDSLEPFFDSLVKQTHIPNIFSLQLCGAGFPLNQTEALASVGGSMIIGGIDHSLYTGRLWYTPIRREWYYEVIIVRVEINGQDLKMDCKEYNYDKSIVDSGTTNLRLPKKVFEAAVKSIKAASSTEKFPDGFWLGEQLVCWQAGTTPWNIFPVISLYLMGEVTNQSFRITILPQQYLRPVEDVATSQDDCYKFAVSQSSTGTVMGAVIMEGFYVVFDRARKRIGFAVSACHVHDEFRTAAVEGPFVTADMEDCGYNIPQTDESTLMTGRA

Row | Binder | % inhibition, FRET short substrate assay (negative = activation) (human BACE1 ECD) [%] | % inhibition, FRET short substrate assay (negative = activation) (murine BACE1 ECD) [%] | EC50, HTRF long substrate assay [1] [nM] | max % inhibition, Abeta x-40 in mouse cortical neurons [2] [%] | EC50, FRET short substrate assay [3] [nM] | EC50, HTRF long substrate assay [3] [nM] | IC50, Abeta x-40 in mouse cortical neurons (row 5894*, second run) [2] [nM] | EC50, FRET short substrate assay [1] [nM] | IC50, Abeta x-40 in mouse cortical neurons (row 5905*, second run) [4] [nM] | max % inhibition, Abeta x-40 in mouse cortical neurons [4] [%] | IC50, Abeta x-40 in mouse cortical neurons (row 5887*, second run) [2] [nM] | IC50, Abeta x-40 in mouse cortical neurons (row 5903*, second run) [4] [nM]
1 | 5539 (antibody, V domains shown) VH: not shown VL: DIQMTQSPSSLSASVGDRVTITCRASQSISSYLNWYQQKPGKAPKLLIYAASSLQSGVPSRFSGSGSGTDFTLTISSLQPEDFATYYCQQPLSHPRTFGGGTKVEIK | 42 | 23 | 0.694 | 45 | – | – | – | – | – | – | – | –
2 | 5894 (antibody, V domains shown) VH: QVQLVQSGAEVKKPGSSVKVSCKASGGTFSGYAISWVRQAPGQGLEWMGNIIPGFGTANYAQKFQGRVTITADESTSTAYMELSSLRSEDTAVYYCARSGGTKYGMLDVWGQGTMVTVSS VL: EIVMTQSPATLSVSPGERATLSCRASQSVGSNLAWYQQKPGQAPRLLIYGASTRATGIPARFSGSGSGTEFTLTISSLQSEDFAVYYCQQLYTWPPRTFGGGTKVEIK | 69 | 69 | – | 78 | 8.58 | 1.79 | 5.43 | – | – | – | – | –
3 | 5644 (antibody, V domains shown) VH: QLQLQESGPGLVKPSETLSLTCTVSGGSISSSSYYWGWIRQPPGKGLEWIGSIYYSGSTYYNPSLKSRVTISVDTSKNQFSLKLSSVTAADTAVYYCARVGHGISYFDLWGRGTLVTVSS VL: EIVLTQSPATLSLSPGERATLSCRASQSVSSYLAWYQQKPGQAPRLLIYDASKRATGIPARFSGSGSGTDFTLTISSLEPEDFAVYYCQQVYTWPPRTFGGGTKVEIK | 65 | 63 | 8.75 | 72 | – | – | – | 8.47 | – | – | – | –
4 | 5905 (antibody, V domains shown) VH: QLQLQESGPGLVKPSETLSLTCTVSGGSISWSSYYWSWIRQPPGKGLEWIGSIYRSGRTYYNPSLKSRVTISVDTSKNQFSLKLSSVTAADTAVYYCARVGHGISYFDLWGRGTLVTVSS VL: EIVLTQSPATLSLSPGERATLSCRASQSVSSYLAWYQQKPGQAPRLLIYDASKRATGIPARFSGSGSGTDFTLTISSLEPEDFAVYYCQQVYTWPPRTFGGGTKVEIK | 65 | 72 | – | – | 1.33 | 3.91 | – | – | 0.83 | 65 | – | –
5 | 5891 (antibody, V domains shown) VH: QVQLVQSGAEVKKPGSSVKVSCKASGGTFSSYAISWVRQAPGQGLEWMGNIIPIFGPANYAQKFQGRVTITADESTSTAYMELSSLRSEDTAVYYCARSGGTKYGMLDVWGQGTMVTVSS VL: EIVMTQSPATLSVSPGERATLSCRASQSVGSNLAWYQQKPGQAPRLLIYGASTRATGIPARFSGSGSGTEFTLTISSLQSEDFAVYYCQQLYTWPPRTFGGGTKVEIK | 71 | 70 | – | 78 | 12.4 | 3.03 | – | – | – | – | – | –
6 | 5892 (antibody, V domains shown) VH: QVQLVQSGAEVKKPGSSVKVSCKASGGTFSSYAISWVRQAPGQGLEWMGNIIPIFGTATYAQKFQGRVTITADESTSTAYMELSSLRSEDTAVYYCARSGGTKYGMLDVWGQGTMVTVSS VL: EIVMTQSPATLSVSPGERATLSCRASQSVGSNLAWYQQKPGQAPRLLIYGASTRATGIPARFSGSGSGTEFTLTISSLQSEDFAVYYCQQLYTWPPRTFGGGTKVEIK | 64 | 64 | – | 73 | 16.4 | 1.19 | – | – | – | – | – | –
7 | 5887 (antibody, V domains shown) VH: QVQLVQSGAEVKKPGSSVKVSCKASGGTFRGYAISWVRQAPGQGLEWMGNIIPGFGTANYAQKFQGRVTITADESTSTAYMELSSLRSEDTAVYYCARSGGTKYGMLDVWGQGTMVTVSS VL: EIVMTQSPATLSVSPGERATLSCRASQSVSSNLAWYQQKPGQAPRLLIYGASTRATGIPARFSGSGSGTEFTLTISSLQSEDFAVYYCQQLILWPPRTFGGGTKVEIK | -102 | -230 | 5.5 | 75 | – | – | – | 0.482 | – | – | 2.53 | –
8 | 5903 (antibody, V domains shown) VH: QLQLQESGPGLVKPSETLSLTCTVSGGSISSSSYYWGWIRQPPGKGLEWIGMIYYSGSTWYNPSLKSRVTISVDTSKNQFSLKLSSVTAADTAVYYCARVGHGISYFDLWGRGTLVTVSS VL: EIVLTQSPATLSLSPGERATLSCRASQSVSSYLAWYQQKPGQAPRLLIYDASKRATGIPARFSGSGSGTDFTLTISSLEPEDFAVYYCQQVYTWPPRTFGGGTKVEIK | – | – | – | – | 3.12 | 1.38 | – | – | – | 72 | – | 7.27
9 | 5890 (antibody, V domains shown) VH: QVQLVQSGAEVKKPGSSVKVSCKASGGTFSSYAISWVRQAPGQGLEWMGNIIPGFGTANYAQKFQGRVTITADESTSTAYMELSSLRSEDTAVYYCARSGGTKYGMLDVWGQGTMVTVSS VL: EIVMTQSPATLSVSPGERATLSCRASQSVGSNLAWYQQKPGQAPRLLIYGASTRATGIPARFSGSGSGTEFTLTISSLQSEDFAVYYCQQLYTWPPRTFGGGTKVEIK | 66 | 69 | – | 77 | 32.4 | 4.06 | – | – | – | – | – | –
10 | 5888 (antibody, V domains shown) VH: QVQLVQSGAEVKKPGSSVKVSCKASGGTFWKYAISWVRQAPGQGLEWMGNIIPGFGTANYAQKFRGRVTITADESTSTAYMELSSLRSEDTAVYYCARSGGTKYGMLDVWGQGTMVTVSS VL: EIVMTQSPATLSVSPGERATLSCRASQSVSSNLAWYQQKPGQAPRLLIYGASTRATGIPARFSGSGSGTEFTLTISSLQSEDFAVYYCQQLILWPPRTFGGGTKVEIK | -86 | -183 | – | 82 | 0.602 | 2.5 | – | – | – | – | – | –
